Here are results for 38 sequences from the supplement of paper PMC7877785.

± gives the uncertainty stated by the source.

The nature of this data set: self-splicing fitness, log relative to wild type (ln ratio); higher = more splicing; Tetrahymena group I intron in knt gene, E. coli kanamycin selection, DiMSum; sequences stand for … in CUCUCU…GGAGGGAAAAGUUAUCAGGCAUGCACCUGGUAGCUAGUCUUUAAACCAAUAGAUUGCAUCGGUUUAAAAGGCAAGACCGUCAAAUUGCGGGAAAGGGGUCAACAGCCGUUCAGUACCAAGUCUCAGGGGAAACUUUGAGAUGGCCUUGCAAAGGGUAUGGUAAUAAGCUGACGGACAUGGUCCUAACCACGCAGCCAAGUCCUAAGUCAACAGAUCUUCUGUUGAUAUGGAUGCAGUUCACAGACUAAAUGUCGGUCGGGGAAGAUGUAUUCUUCUCAUAAGAUAUAGUCGGACCUCUCCUUAAUGGGAGCUAGCGGAUGAAGUGAUGCAACACUGGAGCCGCUGGGAACUAAUUUGUAUGCGAAAGUAUAUUGAUUAGUUUUGGAGUACUCGUGGUCG
A digest of the protocol:
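Pooled colonies went to amplicon sequencing on an Illumina HiSeq 2500 after six replicate transformations. The plates were LB agar with 100 μg/mL carbenicillin, 50 μM IPTG and 0.2% rhamnose, with or without 25 μg/mL kanamycin, incubated overnight at 37°C or 30°C. The E. coli BL21(DE3) library had all eight P1ex-region intron nucleotides randomised, the intron placed in the knt kanamycin-resistance gene on pET-22b(+). DiMSum fitness is the error-weighted combination of replicate fold changes, kanamycin against none, normalised to wild type.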

As to CAAGAGCAAUAUUACGUUCG, the “self-splicing fitness (ln)” value (30 °C) was -1.27 ± 0.089 and the “self-splicing fitness (ln)” value (37 °C) was -0.199 ± 0.11.
The matching figures for UGCAAGCAAUAUUACGUCGU: -3.58 ± 0.22 and -1.81 ± 0.17.
Turning to AGACAGCAAUAUUACGGACC, the “self-splicing fitness (ln)” value (30 °C) is -0.551 ± 0.075 and the “self-splicing fitness (ln)” value (37 °C) was -0.201 ± 0.086.
For the sequence AAUAAGCAAUAUUACGAGCA, the “self-splicing fitness (ln)” value reads like this: (30 °C) -1.37 ± 0.2; (37 °C) -0.258 ± 0.2.
The matching figures for GGGUAGCAAUAUUACGUUGA: -2.44 ± 0.16 and -0.495 ± 0.11.
The matching figures for UUUAAGCAAUAUUACGACCG: -0.889 ± 0.18 and 0.563 ± 0.26.
UGGAAGCAAUAUUACGUAUG: the “self-splicing fitness (ln)” value was -1.96 ± 0.16 (30 °C) and -0.289 ± 0.14 (37 °C).
For the sequence AAGCAGCAAUAUUACGAACG, the “self-splicing fitness (ln)” value was -2.31 ± 0.094 (30 °C) and -0.98 ± 0.11 (37 °C).
Consider AGCAAGCAAUAUUACGGGAU, for which the “self-splicing fitness (ln)” value (30 °C) is -2.79 ± 0.098 and the “self-splicing fitness (ln)” value (37 °C) was -1.15 ± 0.081.
For the sequence GCGCAGCAAUAUUACGAGUU, the “self-splicing fitness (ln)” value by setting is: (30 °C) -0.986 ± 0.066; (37 °C) -0.241 ± 0.1.
As to CCGGAGCAAUAUUACGCUGG, for the setting “30 °C”, the “self-splicing fitness (ln)” value is -1.99 ± 0.21.
With GCGAAGCAAUAUUACGUCCA, the “self-splicing fitness (ln)” value runs as follows: (30 °C) -1.16 ± 0.086; (37 °C) -0.269 ± 0.11.
For the sequence AGCGAGCAAUAUUACGCUUU, where the note is “37 °C”, the “self-splicing fitness (ln)” value is -2.89 ± 0.27.
Take CAGAAGCAAUAUUACGACGU: the “self-splicing fitness (ln)” value reads like this: (30 °C) -1.53 ± 0.12; (37 °C) -0.618 ± 0.12.
Regarding AACAAGCAAUAUUACGCCUU, the “self-splicing fitness (ln)” value is -0.742 ± 0.11 (30 °C) and -0.314 ± 0.12 (37 °C).
The corresponding values for UAGUAGCAAUAUUACGUAUG are -1.82 ± 0.1 and -0.711 ± 0.12.
The matching figures for CGGGAGCAAUAUUACGCUCA: -4.3 ± 0.46 and -0.0948 ± 0.37.
The corresponding values for UUCUAGCAAUAUUACGACUU are -1.77 ± 0.24 and -1.59 ± 0.19.
In the case of AAUGAGCAAUAUUACGCGGG, the “self-splicing fitness (ln)” value runs as follows: (30 °C) -3.11 ± 0.3; (37 °C) -2.57 ± 0.25.
On to UCCGAGCAAUAUUACGUAGU, for which the “self-splicing fitness (ln)” value is -2.97 ± 0.16 (30 °C) and -2.71 ± 0.18 (37 °C).
AACUAGCAAUAUUACGACGG: the “self-splicing fitness (ln)” value by setting is: (30 °C) -2.21 ± 0.14; (37 °C) -0.86 ± 0.21.
With AACGAGCAAUAUUACGGUGU, the “self-splicing fitness (ln)” value (30 °C) is -3.36 ± 0.17 and the “self-splicing fitness (ln)” value (37 °C) was -1.81 ± 0.18.
The matching figures for ACGAAGCAAUAUUACGUCUA: -1.66 ± 0.071 and -1.03 ± 0.061.
The corresponding values for UGUUAGCAAUAUUACGAUGG are -1.71 ± 0.11 and -0.474 ± 0.1.
The matching figures for UUGUAGCAAUAUUACGCUCA: -1.27 ± 0.14 and 0.0359 ± 0.18.
As for AGAGAGCAAUAUUACGGCGU, the “self-splicing fitness (ln)” value (30 °C) was -2.48 ± 0.19 and the “self-splicing fitness (ln)” value (37 °C) is -2.7 ± 0.25.
The matching figures for UCAAAGCAAUAUUACGUUAG: -2.02 ± 0.12 and -1.64 ± 0.12.
For AAUGAGCAAUAUUACGGGUC, where the note is “30 °C”, the “self-splicing fitness (ln)” value was -2.57 ± 0.37.
As to CCUCAGCAAUAUUACGGGUC, the “self-splicing fitness (ln)” value runs as follows: (30 °C) -2.5 ± 0.27; (37 °C) -2.56 ± 0.36.
As to GUAAAGCAAUAUUACGGAGC, the “self-splicing fitness (ln)” value (30 °C) was -2.47 ± 0.2 and the “self-splicing fitness (ln)” value (37 °C) was -1.71 ± 0.21.
As to AGUUAGCAAUAUUACGGUUU, the “self-splicing fitness (ln)” value runs as follows: (30 °C) -0.98 ± 0.071; (37 °C) -0.317 ± 0.1.
As to CGCCAGCAAUAUUACGAACA, the “self-splicing fitness (ln)” value (30 °C) was -3.55 ± 0.26 and the “self-splicing fitness (ln)” value (37 °C) was -0.716 ± 0.11.
On to AGUUAGCAAUAUUACGAACU, for which the “self-splicing fitness (ln)” value was -1.59 ± 0.23 (30 °C) and -1.89 ± 0.28 (37 °C).
Consider CGUAAGCAAUAUUACGUACC, for which the “self-splicing fitness (ln)” value was -1.94 ± 0.21 (30 °C) and -1.76 ± 0.24 (37 °C).
With AAGCAGCAAUAUUACGUCUA, the “self-splicing fitness (ln)” value was -1 ± 0.053 (30 °C) and -1.53 ± 0.062 (37 °C).
The corresponding values for CUGUAGCAAUAUUACGACUC are -4.11 ± 0.42 and -1 ± 0.3.
The matching figures for ACCCAGCAAUAUUACGAACC: -2.19 ± 0.15 and -0.993 ± 0.15.
The matching figures for GAAAAGCAAUAUUACGCCUU: -0.813 ± 0.11 and -0.558 ± 0.13.
